Data published in the supplement of paper PMC12764529.
± gives the half width of the 95% confidence interval.

Experiments:
[1] = folding stability dG unfold from chymotrypsin proteolysis; higher = more stable
Method in brief: (§1)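 How resistant each design was to proteolysis was captured as K50, inferred by Bayesian fitting of sequencing counts. Unfolding free energy was then derived relative to a sequence-predicted unfolded-state K50 and a shared folded-state K50, per protease or combined. Digestion used trypsin and chymotrypsin at 11 threefold-diluted concentrations plus a no-protease condition, on mini-proteins under 80 residues without cysteine in a PA-tagged cDNA display construct. Designs were kept only when AlphaFold2 dimer inter-PAE was above 15.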

[2] = folding stability dG unfold (combined trypsin and chymotrypsin); higher = more stable
Method in brief: as §1

[3] = folding stability dG unfold from trypsin proteolysis; higher = more stable
Method in brief: as §1

| Sequence | folding stability dG unfold [1] [kcal/mol] | folding stability dG unfold [2] [kcal/mol] | folding stability dG unfold [3] [kcal/mol] |
| --- | --- | --- | --- |
| SAGGSAGGSAGMRTITIPIPDGDPENIEEQARELADAFPDLKGKKVNIEYHKDGWITITVSAGGSAGGSAGG [r17_324_TrROS] | 1.19 ± 0.1 | 1.15 ± 0.18 | 0.694 ± 0.15 |
| SAGGSAGGSAGMRYEIEVEEVPPGLVRIRVRVDGKEYTILISEEEAKRLAEELGVEIEPVSAGGSAGGSAGG [r17_109_TrROS_Hall] | 2.28 ± 0.07 | 2.76 ± 0.19 | 3.24 ± 0.12 |
| SAGGSAGGSAGMSVSLTSTTVSLPPELLSPEEAARTEDAVVTTTTSTLPAVVDPATGTVTSAGGSAGGSAGG [r17_310_JUSTAS] | 0.518 ± 0.043 | 1.39 ± 0.092 | 1.92 ± 0.057 |
| SAGGSAGGSAGMTITKTEDGTYRLTLTVTETLPNGSTVTRTVTLTVPLEDAEEILAALPPSAGGSAGGSAGG [r11_505_TrROS_Hall] | 2.87 ± 0.032 | 2.72 ± 0.089 | 2.52 ± 0.11 |
| SAGGSAGGSAGMTITLPNGAEITSIEINEDGTITITVRVNGKTLTLTITVTLPPPPPEEPSAGGSAGGSAGG [r17_421_TrROS_Hall] | 3.54 ± 0.16 | 3.69 ± 0.18 | 3.67 ± 0.17 |
| SAGGSAGGSAGMTLIYKDPETGKYYIVDFEESGPERVFEVDSLDEAEEIAEKLGRKLDPLSAGGSAGGSAGG [r11_1049_TrMRF] | 2.591 ± 0.018 | 2.31 ± 0.055 | 1.39 ± 0.029 |
| SAGGSAGGSAGMTVEEFTIPEVGGRVIRTTVEEPTEDGVVVRRRYLILVNPDGTVERRPESAGGSAGGSAGG [r11_911_JUSTAS] | 0.13 ± 0.17 | 0.111 ± 0.092 | -0.0463 ± 0.17 |
| SAGGSAGGSAGMTVPPELSVTITRSPEGSLRVESPVPDRELTIPPDVPLTVSPDNVVTVASAGGSAGGSAGG [r17_49_JUSTAS] | 0.783 ± 0.017 | 0.655 ± 0.041 | 0.451 ± 0.031 |
| SAGGSAGGSAGMTVPTSVEVSPDGTVRVRQLRWVRHGDGWRPFTFTVTLPISDDALKALKSAGGSAGGSAGG [r17_415_TrMRF] | 1.14 ± 0.059 | 1.12 ± 0.038 | 1.02 ± 0.038 |
| SAGGSAGGSAGMVIEDPSGVTTVVTFDTSVPVVTTTTLTKDPNSNNYTTTTTTTPVTVPVSAGGSAGGSAGG [r17_491_JUSTAS] | 0.725 ± 0.11 | 1.06 ± 0.073 | 1.34 ± 0.099 |
| SAGGSAGGSAGMVIERPDDKVLVILGYDPEKGKVYVAVYDPKTGEVRFKEFDNLEDEIKDSAGGSAGGSAGG [r17_300_TrMRF] | 1.76 ± 0.08 | 1.91 ± 0.17 | 2.16 ± 0.11 |
| SAGGSAGGSAGMVIEVGGKKVTIEKNEDGSLKITVTDKNGKKKEITIPGMSLEEILKALKSAGGSAGGSAGG [r11_934_TrROS_Hall] | 2.57 ± 0.036 | 2.9 ± 0.081 | 3.23 ± 0.076 |
| SAGGSAGGSAGMVINVTVTLKNSTGTITITLPVPPDLLDEVLKELKEKPDYEVVSVDTSPSAGGSAGGSAGG [r11_692_JUSTAS] | 2.79 ± 0.16 | 2.67 ± 0.14 | 2.47 ± 0.11 |
| SAGGSAGGSAGMVITKDPNGNYTVDLVLPDGTPLDSGTITLEEVEKILKERGIPLKEIFGSAGGSAGGSAGG [r11_521_JUSTAS] | 0.543 ± 0.048 | 0.361 ± 0.12 | -0.271 ± 0.27 |
| SAGGSAGGSAGMVKLRFEVKFKIKLLGEGETNEVVEVDVKVEFEVTLPPFKVRPDGSLLESAGGSAGGSAGG [r11_558_TrMRF] | 4.39 ± 0.15 | 4.03 ± 0.21 | 3.2 ± 0.24 |
| SAGGSAGGSAGMVKVKITAPPNASLDAIIKAVKDNGAEIISIERKGNELIIEVEIPEENASAGGSAGGSAGG [r11_672_TrMRF] | 1.28 ± 0.046 | 1.42 ± 0.062 | 1.54 ± 0.054 |
| SAGGSAGGSAGMVLRVRTKDGKVIEIKDLSEELKNMTAEQLAEELKKKFPDLKIEVEEVPSAGGSAGGSAGG [r17_42_TrROS_Hall] | 2.26 ± 0.05 | 2.37 ± 0.15 | 2.19 ± 0.14 |
| SAGGSAGGSAGNKDYPVIEVTYPFPPGAPASDIKDFAEPFGFESIEFDDNGTVKVYFYLPSAGGSAGGSAGG [r11_961_TrROS] | 0.818 ± 0.11 | 0.825 ± 0.087 | 0.737 ± 0.051 |

| Sequence | folding stability dG unfold [1] [kcal/mol] | folding stability dG unfold [2] [kcal/mol] | folding stability dG unfold [3] [kcal/mol] |
| --- | --- | --- | --- |
| SAGGSAGGSAGNKPVTVRFTIKIPLPNGKKLEIPVEVTYDSPEDRDRAEKEAEEIAREFLSAGGSAGGSAGG [r17_510_TrROS] | 1.11 ± 0.098 | 1.36 ± 0.097 | 1.5 ± 0.057 |
| SAGGSAGGSAGNMEVIEEVEFTFPGLGVKISVSIFKTDGGIVIMIDIEIPMPPEDRKKFKSAGGSAGGSAGG [r17_431_TrROS] | 1.61 ± 0.18 | 1.25 ± 0.15 | 0.857 ± 0.097 |
| SAGGSAGGSAGNPPNKPKPIIKVVPFRYRFYIPETGSVIEIDIYVFEDDTVKIKIKTYPLSAGGSAGGSAGG [r11_883_TrMRF] | 5.38 ± 0.2 | 5.03 ± 0.22 | 3.73 ± 0.28 |
| SAGGSAGGSAGNYMVRLEIEMPENGRKVEWMVPEDDPEEILEKFPWLKEHGMEVKIEVFPSAGGSAGGSAGG [r17_176_TrROS] | 0.638 ± 0.08 | 0.498 ± 0.1 | 0.236 ± 0.037 |
| SAGGSAGGSAGPALRIPFLVERPDGSPFWAEARVYEDGTVELRIYGDEPIATFTFPLDELSAGGSAGGSAGG [r11_327_TrMRF] | 1.6 ± 0.15 | 1.68 ± 0.15 | 1.55 ± 0.044 |
| SAGGSAGGSAGPFEGYRDKKGKYYLETPDGTKELDSEEELEEEKKRLLEEGIPINVKPSASAGGSAGGSAGG [r17_35_JUSTAS] | 0.71 ± 0.14 | 0.458 ± 0.26 | -0.308 ± 0.11 |
| SAGGSAGGSAGPIDPNSTRPVPADYVVIRIRGDEKPRYFVVHPEYAKEFAERHGAELYYESAGGSAGGSAGG [r17_109_TrMRF] | 0.582 ± 0.082 | 0.44 ± 0.076 | 0.0223 ± 0.14 |
| SAGGSAGGSAGPIIPPNFEVVDVFETETSYYILVKNPETGRYYVARYDPLTGKIEVFEVSSAGGSAGGSAGG [r11_896_TrMRF] | 4.75 ± 0.065 | 4.52 ± 0.1 | 3.46 ± 0.1 |
| SAGGSAGGSAGPKIPKNYKIVATYTVPPTNKKKLILYDPKTNKPLIFDTVSGKIYPFGKKSAGGSAGGSAGG [r11_268_TrMRF] | 2 ± 0.11 | 1.84 ± 0.097 | 1.59 ± 0.027 |
| SAGGSAGGSAGPLRPRLYRVRFTNPDGSRREFLVPEGATLEEILKRFNIPESGRVELEPVSAGGSAGGSAGG [r11_340_TrMRF] | 2.04 ± 0.07 | 2.26 ± 0.082 | 2.3 ± 0.033 |
| SAGGSAGGSAGPNAVYLGELEVTTRNPDGDRPLRVRVELYLVPTPEGLRLLARVLEVEELSAGGSAGGSAGG [r11_113_TrMRF] | 3.644 ± 0.021 | 3.4 ± 0.04 | 2.81 ± 0.052 |
| SAGGSAGGSAGPPNQRHEYEIKLTIYDPDNGKKFTIKIPMESPWDMPNFMRKLADNGYIKSAGGSAGGSAGG [r11_668_TrROS] | 1.38 ± 0.11 | 1.12 ± 0.11 | 0.557 ± 0.14 |
| SAGGSAGGSAGPRIVAFNVPNGKTIPLFAPDGWMIRINIERDPKDGEHKMETEYVPADDISAGGSAGGSAGG [r17_287_TrROS] | -0.276 ± 0.44 | -0.419 ± 0.29 | -0.424 ± 0.37 |
| SAGGSAGGSAGPRYRLRIELRLERNEDGSLSLSAKIEIERIEPPPPPPRVVLYNGKLYLLSAGGSAGGSAGG [r17_418_TrROS_Hall] | 4.35 ± 0.21 | 4.28 ± 0.34 | 3.91 ± 0.41 |
| SAGGSAGGSAGPSDDVKPYEVEAEFLIPGTGERVRVRAEVYTLDEEKGLALVRVEVEPVLSAGGSAGGSAGG [r11_1029_TrMRF] | 2.88 ± 0.054 | 2.41 ± 0.18 | 1.54 ± 0.07 |
| SAGGSAGGSAGPSYIAVVEFENGERPVYLFPPNTGKLEDIVEELKKKFPSLKKITIYPAPSAGGSAGGSAGG [r11_311_TrMRF] | 3.01 ± 0.16 | 3.33 ± 0.087 | 3.58 ± 0.17 |
| SAGGSAGGSAGPVPKTITVTVSSPEEAEAAVKEIKPKYPNVKVERKKVGDKIVLTITVEESAGGSAGGSAGG [r17_319_JUSTAS] | 1.88 ± 0.093 | 1.75 ± 0.16 | 1.86 ± 0.11 |
| SAGGSAGGSAGRAEIPITFNGKKVEVEVEPDPDNGHPIITIKFGNKPVVINPDGQIRPFPSAGGSAGGSAGG [r11_732_TrROS] | -0.0926 ± 0.47 | 0.0302 ± 0.19 | -0.0507 ± 0.11 |
